By Kd is commonly meant the concentration at which binding is half-saturated. High values mean weaker binding, low ones tighter binding.

Where two headings read alike, the source gives them in different places.

Five molecules from publication PMC8214912 can be followed below.

Assay in all cases: NMR titration
Data set [1] has as its target T1, N 1-209 (nucleocapsid N-terminal region: N-terminal flank, NTD and SR region) (SARS-CoV-2, UniProt P0DTC9 1-209).
Data set [2] deals with T1, N 1-209 (nucleocapsid N-terminal …). The source holds these as a separate data set.
The target is the same in data set [3]. This is another data set of the same source.

Molecule TAATAAC (ssDNA) showed a Kd in data set [1] of 110 ± 8 µM.
The same measure, in the same setting: as for GGUGGGAGCCUCUUUUAUGGGGUGACUGCC (structured_RNA) [H25 30-mer], the figure is 19.9 ± 4.7 µM.
The molecule GUGUGUGCCUGU (ssRNA) [GU 12-mer] came in with a Kd in data set [2] of 6 ± 2 µM.
For UAAUAAC (mixed, 2'-deoxy at terminal nucleotides 1 (dU) and 7 (dC); remainder RNA) [dUAAUAAdC], the Kd in data set [3] came out at 138 ± 12 µM.
Regarding AAUAA (ssRNA), binding in data set [3] was put at a Kd of 189 ± 22 µM.
